Test results taken from patent US20200369765A1 (INNATE PHARMA, published 2020).
Changes are numbered by the printed parent chain. Values belong to the binder of their own block, whether it stands above or below them.

Legend:
[1] = target: T1, Human Siglec-9 Ig-like C2-type domain 1 (human); experiment: flow cytometry, HEK293T cells expressing single Siglec-9 domains
T1 construct: expressed on HEK293T cells
T1 chain: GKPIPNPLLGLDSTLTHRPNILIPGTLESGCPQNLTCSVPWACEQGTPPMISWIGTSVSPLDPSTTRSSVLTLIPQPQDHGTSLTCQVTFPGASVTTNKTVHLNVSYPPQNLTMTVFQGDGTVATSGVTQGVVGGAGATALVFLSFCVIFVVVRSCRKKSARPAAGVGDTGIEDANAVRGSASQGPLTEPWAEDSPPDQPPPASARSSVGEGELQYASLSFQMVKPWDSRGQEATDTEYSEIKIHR

[2] = target: T2, Siglec-7 Fc protein (human); experiment: ELISA, blocking: Siglec-7 Fc captured on protein A, mAb dilution series, then biotinylated polymer Sia2, streptavidin-peroxidase (top panel); partial inhibition
T2 construct: Produced in CHO cells; also called human Siglec-7 Fc
T2 sequence (chain, as listed by the source limits assumed): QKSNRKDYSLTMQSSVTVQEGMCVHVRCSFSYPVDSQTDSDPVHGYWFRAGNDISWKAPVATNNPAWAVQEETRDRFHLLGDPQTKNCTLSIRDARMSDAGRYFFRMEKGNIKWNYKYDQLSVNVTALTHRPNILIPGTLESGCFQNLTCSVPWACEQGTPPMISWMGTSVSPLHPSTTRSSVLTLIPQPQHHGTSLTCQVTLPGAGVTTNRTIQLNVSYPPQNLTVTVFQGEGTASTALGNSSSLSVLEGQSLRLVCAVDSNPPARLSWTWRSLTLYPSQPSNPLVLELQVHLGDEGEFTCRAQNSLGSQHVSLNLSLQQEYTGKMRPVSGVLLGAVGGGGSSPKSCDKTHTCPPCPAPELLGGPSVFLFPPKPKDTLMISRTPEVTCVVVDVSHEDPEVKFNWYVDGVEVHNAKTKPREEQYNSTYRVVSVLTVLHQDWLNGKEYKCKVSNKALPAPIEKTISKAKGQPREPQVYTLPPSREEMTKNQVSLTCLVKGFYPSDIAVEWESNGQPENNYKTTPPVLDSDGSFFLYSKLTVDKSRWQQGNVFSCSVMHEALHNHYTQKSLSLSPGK
Experimental: (§1) Blocking of the interaction between Siglec-7 and -9 and sialylated ligands by anti Siglec-7/9 antibodies was tested on ELISA assays. Siglec proteins were Siglec-7 human Fc and Siglec-9 Human Fc recombinant proteins, and ligands were biotinylated polymers with sialylated trisaccharides (Neu5Aca2-3Galb1-4GcNAcb-PAA-biotin Glycotech #01-077 referred to as “Sia1” and 6′-Sialyllactose-PAA-biotin Glycotech #01-039 (referred to as “Sia2”). Briefly, Protein A was coated on ELISA plates over night at 4° C. After 3 washes and saturation, Siglec-7 Fc and Siglec-9 Fc were added at 0.8 μg/well at RT for 1H30. After 3 washes, mAbs were added at 20 ug/ml and a series of dilution of 1:5. After 3 washes, biotinylated sialylated polymers were added for 3 hours at room temperature. After 3 washes, Streptavidin-Peroxidase (Beckman) was added at 1:1000. […] The absorbance was read at 450 nm.

[3] = target: T3, Siglec-9 Fc protein (human); experiment: ELISA, blocking: Siglec-9 Fc captured on protein A, mAb dilution series, then biotinylated polymer Sia1 (Neu5Aca2-3Galb1-4GlcNAcb-PAA-biotin), streptavidin-peroxidase (top panel)
T3 construct: Produced in CHO cells; also called human Siglec-9 Fc
T3 sequence (chain, as listed by the source limits assumed): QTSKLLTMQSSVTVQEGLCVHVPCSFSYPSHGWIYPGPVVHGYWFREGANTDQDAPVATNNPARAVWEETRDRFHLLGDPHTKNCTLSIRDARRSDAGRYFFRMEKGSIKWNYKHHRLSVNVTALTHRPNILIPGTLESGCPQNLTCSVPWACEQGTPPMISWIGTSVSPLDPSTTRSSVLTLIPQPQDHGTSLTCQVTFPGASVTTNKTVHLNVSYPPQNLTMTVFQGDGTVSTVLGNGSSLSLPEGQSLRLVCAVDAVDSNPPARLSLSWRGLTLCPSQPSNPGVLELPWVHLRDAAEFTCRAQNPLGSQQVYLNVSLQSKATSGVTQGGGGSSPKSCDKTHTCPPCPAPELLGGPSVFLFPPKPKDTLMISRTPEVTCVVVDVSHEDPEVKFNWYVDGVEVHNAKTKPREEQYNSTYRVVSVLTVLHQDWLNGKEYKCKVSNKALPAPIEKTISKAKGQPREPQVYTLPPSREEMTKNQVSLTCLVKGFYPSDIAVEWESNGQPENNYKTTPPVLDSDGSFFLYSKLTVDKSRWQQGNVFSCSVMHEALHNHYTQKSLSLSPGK
Experimental: as §1

[4] = target: T4, Human Siglec-9 mutant M2 (human, UniProt Q9Y336 18-463); experiment: flow cytometry, HEK293T transfectants
T4 construct: Expressed on HEK293T cells; also called Mutant 2
T4 sequence (Q9Y336 other isoform, or with tags, fused parts or gaps mutant): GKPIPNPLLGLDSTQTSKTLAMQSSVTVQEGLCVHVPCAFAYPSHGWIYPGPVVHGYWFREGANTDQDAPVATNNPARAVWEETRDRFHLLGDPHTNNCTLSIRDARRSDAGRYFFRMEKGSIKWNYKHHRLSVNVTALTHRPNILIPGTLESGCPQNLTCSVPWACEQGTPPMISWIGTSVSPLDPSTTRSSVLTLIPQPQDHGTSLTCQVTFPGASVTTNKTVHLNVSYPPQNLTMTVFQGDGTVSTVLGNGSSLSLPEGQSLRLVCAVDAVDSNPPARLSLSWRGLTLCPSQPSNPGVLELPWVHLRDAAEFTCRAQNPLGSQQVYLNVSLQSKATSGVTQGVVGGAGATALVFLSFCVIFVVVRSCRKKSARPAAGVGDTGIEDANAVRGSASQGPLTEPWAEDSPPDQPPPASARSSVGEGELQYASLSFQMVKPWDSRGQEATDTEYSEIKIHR

[5] = target: T5, Human Siglec-9 mutant M3 (human, UniProt Q9Y336 18-463); experiment: flow cytometry, HEK293T transfectants
T5 construct: Expressed on HEK293T cells; also called Mutant 3

[6] = target: T6, Human Siglec-9 mutant M5 (human, UniProt Q9Y336 18-463); experiment: flow cytometry, HEK293T transfectants
T6 construct: Expressed on HEK293T cells; also called Mutant 5
T6 sequence (Q9Y336 other isoform, or with tags, fused parts or gaps mutant): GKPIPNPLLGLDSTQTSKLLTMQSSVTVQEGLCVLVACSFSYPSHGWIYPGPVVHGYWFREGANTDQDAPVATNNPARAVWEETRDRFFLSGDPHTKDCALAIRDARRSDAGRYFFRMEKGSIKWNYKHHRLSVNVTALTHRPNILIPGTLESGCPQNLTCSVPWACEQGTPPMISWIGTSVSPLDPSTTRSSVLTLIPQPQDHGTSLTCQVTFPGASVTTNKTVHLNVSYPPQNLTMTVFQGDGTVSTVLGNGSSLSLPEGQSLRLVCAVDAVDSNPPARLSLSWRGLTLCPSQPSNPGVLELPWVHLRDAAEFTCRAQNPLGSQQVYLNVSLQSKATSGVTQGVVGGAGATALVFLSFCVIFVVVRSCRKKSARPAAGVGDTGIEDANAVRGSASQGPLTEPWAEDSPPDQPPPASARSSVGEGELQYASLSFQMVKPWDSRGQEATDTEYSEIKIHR

[7] = target: T7, Human Siglec-9 mutant M6 (human, UniProt Q9Y336 18-463); experiment: flow cytometry, HEK293T transfectants
T7 construct: Expressed on HEK293T cells; also called Mutant 6
T7 sequence (Q9Y336 other isoform, or with tags, fused parts or gaps mutant): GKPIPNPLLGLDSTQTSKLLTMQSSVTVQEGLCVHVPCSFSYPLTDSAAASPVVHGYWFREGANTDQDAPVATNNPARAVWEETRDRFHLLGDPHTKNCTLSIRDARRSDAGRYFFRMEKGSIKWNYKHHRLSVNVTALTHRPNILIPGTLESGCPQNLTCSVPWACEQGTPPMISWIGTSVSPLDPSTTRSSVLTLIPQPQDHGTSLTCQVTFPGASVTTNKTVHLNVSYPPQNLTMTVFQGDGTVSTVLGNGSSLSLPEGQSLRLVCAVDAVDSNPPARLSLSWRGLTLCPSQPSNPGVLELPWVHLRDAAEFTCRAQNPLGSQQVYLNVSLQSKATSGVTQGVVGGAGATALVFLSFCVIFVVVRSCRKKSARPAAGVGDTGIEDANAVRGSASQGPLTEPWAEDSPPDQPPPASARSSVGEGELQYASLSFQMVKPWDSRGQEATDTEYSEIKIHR

[8] = target: T8, Human Siglec-9 mutant M7 (human, UniProt Q9Y336 18-463); experiment: flow cytometry, HEK293T transfectants
T8 construct: Expressed on HEK293T cells; also called Mutant 7
T8 sequence (Q9Y336 other isoform, or with tags, fused parts or gaps mutant): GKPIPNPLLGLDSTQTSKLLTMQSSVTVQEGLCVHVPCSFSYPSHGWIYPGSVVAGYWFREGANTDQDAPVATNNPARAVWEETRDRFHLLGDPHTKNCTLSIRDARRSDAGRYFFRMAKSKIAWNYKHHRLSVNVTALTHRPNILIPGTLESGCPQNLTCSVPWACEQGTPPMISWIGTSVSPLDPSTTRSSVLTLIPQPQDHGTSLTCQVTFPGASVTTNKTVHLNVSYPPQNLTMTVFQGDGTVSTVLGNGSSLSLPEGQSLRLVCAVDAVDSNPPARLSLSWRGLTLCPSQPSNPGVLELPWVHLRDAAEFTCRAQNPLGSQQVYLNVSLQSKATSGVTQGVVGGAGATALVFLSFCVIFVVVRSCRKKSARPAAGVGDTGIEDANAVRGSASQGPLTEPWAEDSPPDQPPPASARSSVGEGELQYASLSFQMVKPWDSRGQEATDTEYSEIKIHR

[9] = target: T9, Human Siglec-9 mutant M8 (human, UniProt Q9Y336 18-463); experiment: flow cytometry, HEK293T transfectants
T9 construct: Expressed on HEK293T cells; also called Mutant 8

[10] = target: T10, Human Siglec-9 mutant M9 (human, UniProt Q9Y336 18-463); experiment: flow cytometry, HEK293T transfectants
T10 construct: Expressed on HEK293T cells; also called Mutant 9
T10 sequence (Q9Y336 other isoform, or with tags, fused parts or gaps mutant): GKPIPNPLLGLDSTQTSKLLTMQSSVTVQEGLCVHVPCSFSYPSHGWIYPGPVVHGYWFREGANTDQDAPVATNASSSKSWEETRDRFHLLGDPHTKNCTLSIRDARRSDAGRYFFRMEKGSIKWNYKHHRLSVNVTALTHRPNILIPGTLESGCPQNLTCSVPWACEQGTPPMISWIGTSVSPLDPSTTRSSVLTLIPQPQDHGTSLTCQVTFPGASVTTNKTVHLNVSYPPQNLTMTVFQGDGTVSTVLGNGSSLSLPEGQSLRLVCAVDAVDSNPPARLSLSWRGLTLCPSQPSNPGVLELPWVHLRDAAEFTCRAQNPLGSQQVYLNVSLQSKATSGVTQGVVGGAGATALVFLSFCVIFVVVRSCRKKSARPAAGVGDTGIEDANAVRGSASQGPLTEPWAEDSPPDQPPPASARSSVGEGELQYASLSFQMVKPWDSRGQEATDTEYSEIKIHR

[11] = target: T11, Human Siglec-9 mutant M10 (human, UniProt Q9Y336 18-463); experiment: flow cytometry, HEK293T transfectants
T11 construct: Expressed on HEK293T cells; also called Mutant 10
T11 sequence (Q9Y336 other isoform, or with tags, fused parts or gaps mutant): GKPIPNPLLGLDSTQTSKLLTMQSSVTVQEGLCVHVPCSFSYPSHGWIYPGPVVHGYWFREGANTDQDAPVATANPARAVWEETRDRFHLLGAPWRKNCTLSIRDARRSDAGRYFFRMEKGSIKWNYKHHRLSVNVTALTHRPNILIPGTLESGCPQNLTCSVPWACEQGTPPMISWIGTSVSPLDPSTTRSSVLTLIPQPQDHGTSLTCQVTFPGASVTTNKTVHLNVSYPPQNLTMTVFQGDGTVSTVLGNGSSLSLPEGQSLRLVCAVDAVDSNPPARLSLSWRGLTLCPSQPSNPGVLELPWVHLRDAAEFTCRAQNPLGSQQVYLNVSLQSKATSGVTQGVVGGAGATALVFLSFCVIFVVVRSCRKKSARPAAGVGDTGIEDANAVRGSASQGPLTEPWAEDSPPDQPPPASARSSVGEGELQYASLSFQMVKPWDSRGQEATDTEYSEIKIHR

[12] = target: T12, Human Siglec-9 mutant M11 (human, UniProt Q9Y336 18-463); experiment: flow cytometry, HEK293T transfectants
T12 construct: Expressed on HEK293T cells; also called Mutant 11
T12 sequence (Q9Y336 other isoform, or with tags, fused parts or gaps mutant): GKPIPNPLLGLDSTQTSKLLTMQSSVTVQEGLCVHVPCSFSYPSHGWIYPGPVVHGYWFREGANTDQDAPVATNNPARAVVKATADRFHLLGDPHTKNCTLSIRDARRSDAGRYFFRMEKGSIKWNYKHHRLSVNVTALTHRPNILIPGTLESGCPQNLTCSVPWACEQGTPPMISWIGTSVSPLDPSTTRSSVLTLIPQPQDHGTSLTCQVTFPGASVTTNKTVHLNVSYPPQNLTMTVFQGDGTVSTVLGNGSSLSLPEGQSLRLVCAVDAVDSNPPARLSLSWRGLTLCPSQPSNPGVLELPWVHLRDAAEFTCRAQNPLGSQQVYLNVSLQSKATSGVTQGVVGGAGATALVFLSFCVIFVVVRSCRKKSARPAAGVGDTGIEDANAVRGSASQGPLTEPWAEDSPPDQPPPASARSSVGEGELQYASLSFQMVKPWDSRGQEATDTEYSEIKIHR

[13] = target: T13, Human Siglec-9 mutant M15 (human, UniProt Q9Y336 18-463); experiment: flow cytometry, HEK293T transfectants
T13 construct: Expressed on HEK293T cells; also called Mutant 15

[14] = target: T14, Human Siglec-9 (human, UniProt Q9Y336 18-463); experiment: flow cytometry titration on moDC vs neuraminidase-treated moDC
T14 construct: On transfected CHO cells; also on YTS and KHYG-1 transfectants, primary NK cells and moDC; also called huSiglec-9; CD329
T14 sequence (Q9Y336 18-463): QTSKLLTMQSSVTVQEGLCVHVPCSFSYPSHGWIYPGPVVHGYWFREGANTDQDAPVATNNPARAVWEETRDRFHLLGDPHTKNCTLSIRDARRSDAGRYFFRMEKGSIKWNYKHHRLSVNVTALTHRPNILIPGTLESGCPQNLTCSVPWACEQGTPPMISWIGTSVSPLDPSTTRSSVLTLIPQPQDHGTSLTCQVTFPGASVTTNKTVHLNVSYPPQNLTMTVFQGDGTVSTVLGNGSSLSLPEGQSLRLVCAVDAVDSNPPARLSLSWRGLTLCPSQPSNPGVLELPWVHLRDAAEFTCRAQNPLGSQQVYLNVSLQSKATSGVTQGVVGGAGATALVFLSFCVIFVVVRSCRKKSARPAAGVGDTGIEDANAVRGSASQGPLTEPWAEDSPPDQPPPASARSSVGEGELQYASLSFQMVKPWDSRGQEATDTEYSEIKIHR
Experimental: moDC were desialylated for 2 hours with 25 mU neuraminidase (Roche Diagnostics).
(§2) Binding on moDCs and neuraminidase treated moDCs was tested in a titration experiment by flow cytometry. Cells were incubated 1h in Staining Buffer (SB) with primary antibodies at 10 ug/ml and a series of dilution of 1:10. They were washed two times with SB, then incubated 30 min with a Goat F(ab′)² Anti-Human IgG (Fc) PE (Jackson ImmunoResearch), and washed twice with SB.

[15] = target: T14, Human Siglec-9; experiment: flow cytometry on fresh purified human NK cells, mean of 4 donors
Experimental: Binding of antibodies on fresh purified human NK cells was tested by titration experiment by flow cytometry. Cells were incubated 1h in Staining Buffer (SB) with primary antibodies at 10 ug/ml and a series of dilution of 1:10. They were washed three times with SB, then incubated 30 min with a Goat F(ab′)² Anti-Human IgG (Fc) PE (Jackson ImmunoResearch). Stainings were acquired on a BD FACS Canto II and analyzed using the FlowJo software. EC₅₀ values are shown in the table below in μg/ml (calculated using a 4-parameter logistic fit).

[16] = target: T14, Human Siglec-9; experiment: flow cytometry titration on untreated monocyte-derived dendritic cells (moDCs), goat F(ab')2 anti-human IgG (Fc) PE; table under the left panel
Experimental: as §2

[17] = target: T15, Human Siglec-9 mutant M14 (human, UniProt Q9Y336 18-463); experiment: flow cytometry, HEK293T transfectants
T15 construct: Expressed on HEK293T cells; also called Mutant 14

B1: mAb5 (antibody, human IgG1, V domains shown)
VH: EIQLQQSGPELEKPGASVKISCKASGYSFSDYNMNWVKQSNGKSLEWIGNIDPYYGATSYNQRFKGKATLTVDKSSSTAYMQLKSLTSEDSAVYYCARGDSLFAYWGHGTLVTVSA
VL: DIVMTQSQEFMSTSLGDRVSVTCKASQNVGTNVAWYQQKPGQSPKALLYSASSRYSGVPDRFTGSGSGTDFTLTISNVQSEDLAEYFCQQYITYPYTFGGGTKLEIK
- binding result [1]: binds
- IC50 (read off the curve) [2]: ~1 µg/mL
- binding result [3]: binds

B2: mAb6 (antibody, human IgG1, V domains shown)
VH: B1 VH with H108Q
VL: B1 VL with S76N, V78M
- binding result [1]: binds
- binding result [3]: binds

B3: mAbA (antibody, human IgG1, V domains shown)
VH: QVQLQQPGAELVKPGSPVKLSCKASYFTFTSYWMHWVRQRPGQGLEWIGEINPSNGHTNYNEKFESKATLTVDRSSSTAYMQLSSLTSEDSAVFYCANGVESYDFDDALDYWGQGTSVTVSS
VL: DIQMTQTTSSLSASLGDRVTISCRASQDINNYLNWYQQKPDGTIKLLIYYTSRLHSGVPSRFSGSGSGTDYSLTINNLEQEDIATYFCQQGNTLPFTFGGGTKLEIK
- binding result [4]: binds
- binding result [5]: binds
- binding result [6]: binds
- binding result [7]: binds
- binding result [8]: binds
- binding result [9]: binds
- binding result [10]: binds
- binding result [11]: binds
- binding result [12]: binds
- binding result [13]: binds
- fold change of EC50 after neuraminidase treatment of moDC [14]: 10 fold
- EC50 [15]: 0.08 µg/mL
- EC50 [16]: 0.232 µg/mL

The next lines start with the values.

- binding result [1]: binds
- IC50 (read off the curve) [2]: ~2 µg/mL
- binding result [3]: binds
B4: mAb4 (antibody, human IgG1, V domains shown)
VH: DVQLVESGGDLVKPGGSLKLSCAASGFAFSSYDMSWVRQSPEKRLEWIAHIGSGGGNIYYPDTVKGRFTISRDNAKNTLYLQMRSLKSEDTAMYYCARLIFTTGFYGMDYWGQGTSVTVSS
VL: B3 VL with N30S, N31S, N76S, E79D, E81D, T93A, F96W

- binding result [4]: binds
- binding result [5]: binds
- binding result [6]: binds
- binding result [7]: binds
- binding result [8]: binds
- binding result [10]: binds
- binding result [11]: binds
- binding result [12]: binds
- binding result [17]: binds
- binding result [13]: binds
- fold change of EC50 after neuraminidase treatment of moDC [14]: 10 fold
- EC50 [15]: 0.09 µg/mL
- EC50 [16]: 0.196 µg/mL
B5: mAbC (antibody, human IgG1, V domains shown)
VH: QIQLVQSGPELKKPGETVKISCKASGYTFTNYEMNWVKEAPGKGLKWMGWINTYTGESTYADDFKGRFAFSLETSASTVYLQINNLKDEDVATYFCVRDDYGRSYGFAYWGQGTLVTVSA
VL: NIVLTQSPASLTVSLGQRANISCRASESVDSYGNSFMHWYQQKPGQPPKLLIYLASKLESGVPARFSGSGSRTDFTLTIDPVETDDAATYYCHQNNEDPPWTFGGGTKLEIK
